Values quoted from earlier work, collected in article PMC11449013.
Where two headings read alike, the source gives them in different places.

Target: His128 (UniProt position 179, FICPCHGSQYN)

Cytochrome b6f complex Rieske iron-sulfur protein (ISP, PetC) (Spinacia oleracea (residue numbering; the article does not state the species in which the quoted values were measured))
pKa (2Fe2S cluster oxidised): ∼6.2
pKa (2Fe2S cluster reduced): ∼8
